Experimental data taken from publication PMC10830566 (2024).

Key:
[1] = target: T1, endothelial protein C receptor (EPCR), extracellular region, with a C-terminal 12xHis tag (human, UniProt Q9UNN8 18-210); test: BLI
T1 chain: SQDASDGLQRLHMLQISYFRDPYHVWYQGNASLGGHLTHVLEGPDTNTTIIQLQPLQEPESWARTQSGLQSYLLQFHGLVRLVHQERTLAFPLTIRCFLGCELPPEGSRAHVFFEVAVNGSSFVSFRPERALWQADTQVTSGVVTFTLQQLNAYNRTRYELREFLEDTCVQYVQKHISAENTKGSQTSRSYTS

[2] = target: T1, endothelial protein C receptor (EPCR), …; test: BLI

- koff [1]: 0.0021 s⁻¹
- Kd [2]: 67 nM
B1: activated protein C (APC) (enzyme)
chain 1: ANSFLEELRHSSLERECIEEICDFEEAKEIFQNVDDTLAFWSKHVDGDQCLVLPLEHPCASLCCGHGTCIDGIGSFSCDCRSGWEGRFCQREVSFLNCSLDNGGCTHYCLEEVGWRRCSCAPGYKLGDDLLQCHPAVKFPCGRPWKRMEKKRSHL
chain 2: LIDGKMTRRGDSPWQVVLLDSKKKLACGAVLIHPSWVLTAAHCMDESKKLLVRLGEYDLRRWEKWELDLDIKEVFVHPNYSKSTTDNDIALLHLAQPATLSQTIVPICLPDSGLAERELNQAGQETLVTGWGYHSSREKEAKRNRTFVLNFIKIPVVPHNECSEVMSNMVSENMLCAGILGDRQDACEGDSGGPMVASFHGTWFLVGLVSWGEGCGLLHNYGVYTKVSRYLDWIHGHIRDKEAPQKSWAP
modifications: gamma-carboxyglutamate in the Gla domain of the light chain (incl. Gla7 = precursor 49); light and heavy chains disulfide-linked; activation peptide 200-211 and Lys-Arg 198-199 removed …; chain limits taken from the UniProt features
